Data published in the supplement of paper PMC9170038.

Tests used:
MS2 coat protein [1] = test: apparent KD of MS2 coat protein, switch OFF state (with FMN for OFF switches, without FMN for ON switches); designed switch direction (-1 OFF switch, 1 ON switch): 1; higher = weaker reporter binding; details: FMN input: 0 or 200 uM; Eterna round: R93 (includes R88 designs)
Outline: (§1)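 Apparent KD stands for the median, per design, of fits to normalised cluster binding curves. The curves came from titrating on-chip-transcribed RNA switches on Illumina sequencing clusters with SNAP-549-labelled MS2 coat protein, twofold from 0.7 or 1.5 nM to 3 µM. Buffer was 100 mM Tris-HCl pH 7.5, 80 mM KCl, 4 mM MgCl2, without or with constant ligand.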

MS2 coat protein [2] = test: apparent KD of MS2 coat protein, switch ON state; designed switch direction (-1 OFF switch, 1 ON switch): 1; higher = weaker reporter binding; details: FMN input: 0 or 200 uM; Eterna round: R93 (includes R88 designs)
Outline: as §1

Sequence | apparent KD of MS2 coat protein (MS2 coat protein [1]) | apparent KD of MS2 coat protein (MS2 coat protein [2])
AGAAUAAAAAGAGAGGAUAUCCAUAAGAAAACAUGAGGAUCACCCAUGUGAAAGAUAAUAAGAUGGGAGAAGGCUCAAAAUAAGA [Topaz 46] | 49.5 nM | 20.3 nM
AACAAUCUAUCUGAGGAUAUGUGUCGAAAGACAUGAGGAUCACCCAUGUGAAAACAUGAAAAGACACAGAAGGCAGAUAGAUUGA [SS2: 1154] | 41.5 nM | 40.2 nM
UGGAGACAUGAGGAUCACCCAUGUGAGAAGAGGCGAGGAUAUCGAAAGAAAGAAGAGAAACGAGAAGGCGCGAGUC [salish99-SS1-046] | 41 nM | 28.3 nM
CGGAAGGAGAGAGAGGAUAUCCAAAGGAAAACAUGAGGAUCACCCAUGUAGAAGGUAGGAAAUUGGGAGAAGGCUCAACAGAGAG [salish99-ss2-130] | 33.4 nM | 19.1 nM
AGGAGACAUGAGGAUCACCCAUGUGAGAAGAGGCGAGGAUAUCGAAAGAAAGAAGAGAAACGAGAAGGCGCGAGGU [salish99-SS1-023] | 36.7 nM | 23.6 nM
UACAGACAUGAGGAUCACCCAUGUAGAAUUAUGGGAGGAUAUACAAAGACGAGAGUCAGAGUAGAAGGCCUAGGAC [salish99-ss1-166] | 62.7 nM | 27.3 nM
AAGAUACAUGAGGAUCACCCAUGUUUUGGUGGGUCAGGAUAUAAAAAGAAUGAGAGAAAGUUAGAAGGGACAAAGA [JR_SS001_Sub005] | 309 nM | 201 nM
AAACCACAUGAGGAUCACCCAUGUAAGAUAUACAUAGGAUAUGCGAAAAGAAACAAAGAAGCAGAAGGGUGGAAAA [75%, Ex sub1, 15] | 54.9 nM | 100 nM
AAAUAACAUGAGGAUCACCCAUGUCAAAUAAAUCGAGGAUAUGGGCCCGGGUUCCGGAAGCCAGAAGGCGAAAAGA [Diareslera] | 55.1 nM | 24.9 nM
GGAGCCGGUACUGAGGAUAUUCAUAUUAAAACAUGAGGAUCACCCAUGUAGGCCAGAAGGCCUUGGGAGAAGGCAGACCAGCUCG [Atgexeedri] | 273 nM | 19.1 nM
AAGAAACAUGAGGAUCACCCAUGUAGAAAUAUGGGAGGAUAUACGAAGACGAAAGUCAAAGUAGAAGGCCUAAGAA [Mat - Same State 1 - Eli mod - D105] | 82 nM | 36.3 nM
UGAAGACAUGAGGAUCACCCAUGUGGGAAUAUGGGAGGAUAUACAAAGACGAGAGUCAGAGUAGAAGGCCUAGGAU [salish99-ss1-96] | 154 nM | 36.7 nM
AAGAAACAUGAGGAUCACCCAUGUCAAGAGAGACAAGGAUAUCUGAAUUAAUUAAAUUAAGGAGAAGGUGUGAAAA [71%, Same state of confusion2, 1] | 253 nM | 201 nM
AAGAGACAUGAGGAUCACCCAUGUAGGAUUAUGGGAGGAUAUACAAAGACGAGAGUCAGAGUAGAAGGCCUAGGAU [salish99-ss1-130(!)] | 59.9 nM | 21.5 nM
AAUAAACAUGAGGAUCACCCAUGUAAAUGGGCGAUAGGAUAUGCGAAAAUAAAGAAAGAAGCAGAAGGAUCGAAGA [Ex5 sub 3] | 51.9 nM | 224 nM
AGAAAUAAAAGAGAGGAUAUCCAAAAGAAAACAUGAGGAUCACCCAUGUACACGAAAGUGAAAUGGGAGAAGGCUCAAAAUAAAG [80% More Helter Skelter 2 + Hairpin] | 536 nM | 121 nM
GAAAAACAUGAGGAUCACCCAUGUAGAAAAAUGGGAGGAUAUACAAAGACGAAAGUCAAAGUAGAAGGCCUGAAAG [same state 77% mat/eli mod] | 74.4 nM | 24.8 nM
AAACCACAUGAGGAUCACCCAUGUAGAAAUAUGGGAGGAUAUACAAACACGAAAGUGAAAGUAGAAGGCCUAAAAG [77%, Mat - Mod of Eli, 7] | 118 nM | 17.7 nM
CGGAGACAUGAGGAUCACCCAUGUGAGAAGAGGCGAGGAUAUCGAAAGAAAGAAGAGAAACGAGAAGGCGCGAGAC [salish99-SS1-077] | 26.7 nM | 17.7 nM
AAAAUAUAAAGGAAGGAUAUCCAAAGGACUACAUGAGGAUCACCCAUGUAAAGAAAGAAUAAAUGGGAGAAGGUCCAAAUAAUAA [Designing denovo 32] | 180 nM | 44 nM
AAGAGAAGAACUGAGGAUAUCAGGGAUGGUACAUGAGGAUCACCCAUGUUGGCAAGCGAAGAAACUGAGAAGGCAGAGAAGAAGAA [JR_SameState2_Sub6] | 34.3 nM | 29.4 nM
AACCAACAUGAGGAUCACCCAUGUCAACCCAAGGCAGGAUAUGCGAGAAUAACAAUGGGAGCAGAAGGGCCGACCU [ss1-3] | 53.4 nM | 40 nM

Sequence | apparent KD of MS2 coat protein (MS2 coat protein [1]) | apparent KD of MS2 coat protein (MS2 coat protein [2])
UAAUAAUAAACCAAGGAUAUGGAGUUUCCAACAUGAGGAUCACCCAUGUUUUGCUUGUAAUCGAUCCAGAAGGUGGAGCCAAAUA [JR_SS002_Sub1006] | 68.4 nM | 35.6 nM
AACAUACAUGAGGAUCACCCAUGUUCCGGCAGGGCAGGAUAUCCAUCGAAAGUGUUAUAAGGAGAAGGGCCAUAAA [JR_SS001_Sub013] | 93.3 nM | 31.7 nM
GAAAAACAUGAGGAUCACCCAUGUAGAAAUAUGGGAGGAUAUACGAAGUCGAAAGUCAAAGUAGAAGGCCUAAAAG [Garnet 28] | 108 nM | 31.3 nM
GGUACUACAGAUCAGGAUAUGUUUGGGUAAACAUGAGGAUCACCCAUGUGUGCCCGAUACACAGCACAGAAGGGAUAACGUGGGA [Ditia] | 21.4 nM | 16.2 nM
AAUAAACAUGAGGAUCACCCAUGUAGAAAUAUGGGAGGAUAUACAAAGACGAAAGUCAAAGUAGAAGGCCUAAUAU [Mat - Same State 1 - Mod - D154] | 64.7 nM | 23.2 nM
AAAAUACAUGAGGAUCACCCAUGUGAAAAUAUGGGAGGAUAUACCGAAAAAAAAAAAACGGUAGAAGGCCCUAAAA [SS! 1 MT 6] | 41.6 nM | 17.9 nM
GGGUAAGAGAGAGAGGAUAUCCAAAGGAAAACAUGAGGAUCACCCAUGUAGAAGGUAGGAAAUUGGGAGAAGGCUCAAGAGAGAG [salish99-ss2-136] | 29.7 nM | 29.8 nM
AACUAACAUGAGGAUCACCCAUGUUGCAGCGGUUGAGGAUAUGUGGGUGAAAAUAGCAUGGCAGAAGGCGAGUGUA [SameState1 Malc#25] | 52.2 nM | 68.8 nM
GAAAAACAUGAGGAUCACCCAUGUGAGAAUAUGGGAGGAUAUUCAAAGACGAGAGUCAAAGAAGAAGGCCUAAAAG [Mat - Same State 1 - Eli mod - 38] | 161 nM | 29.3 nM
AAAAUAAAAAGGUAGGAUAUGGGUAAGUCUACAUGAGGAUCACCCAUGUAAUAAAAAGAAAAAAACCAGAAGGACCAAAAUAAAA [72%, More Wateronthemoon, 11] | 50.1 nM | 20.2 nM
AGAAAUAAAUGAGAGGAUAUCCAAAAGAAAACAUGAGGAUCACCCAUGUAAAAGAAAAUAAAAUGGGAGAAGGCUCGAAAUAAAG [80%, More Helter Skelter 2] | 68.5 nM | 22.4 nM
AAAAAACAUGAGGAUCACCCAUGUAAAAAAAACACAGGAUAUCCCUAAAAAAAAAAAAAAGGAGAAGGGUGAAAAA [Nob's Hobby 2 - Jieux - Same State 1] | 29.8 nM | 21.3 nM
ACAAACAAAAAAGAGGAUAUCCAAAACAAAACAUGAGGAUCACCCAUGUAAAAGAAAAGAAAAUGGGAGAAGGCUUACAACAAAC [SS2 M 22] | 28.2 nM | 19.4 nM
GAAAAACAUGAGGAUCACCCAUGUAAGAUAAACACAGGAUAUGCGAAAAUAAACAAAGAAGCAGAAGGGUGAAGAA [Mat - Same State 1 - Tesla mod - 72] | 80.3 nM | 23 nM
GGGAGACAUGAGGAUCACCCAUGUGAGAAGAGGCGAGGAUAUCGAAAAAAAAAAAAAAAACGAGAAGGCGCGAGAG [salish99-SS1-005] | 28.6 nM | 63.7 nM
GAAAAACAUGAGGAUCACCCAUGUGAGAAUAUGGGAGGAUAUACGAGGACGAGAGUCAAGGUAGAAGGCCUAAAAG [Garnet 75] | 549 nM | 40.5 nM
UAAAAACAUGAGGAUCACCCAUGUGAGAACAUGGGAGGAUAUACAAAGACGAAAGUCGAAGUAGAAGGCCUAAAAU [Mat - Same State 1 - Mod - D173] | 25.7 nM | 178 nM
GAAAAACAUGAGGAUCACCCAUGUGGAAAUAUGGAAGGAUAUACAAAGACGGAAGUCAAAGUAGAAGGUCUAAAAG [Mat - Same State 1 - Eli mod - D19] | 29.4 nM | 23.6 nM
AGCACGCGAUUGGAGGAUAUGUUGUUUGCAACAUGAGGAUCACCCAUGUCUGAGGCUGAAAAGCAGCAGAAGGCCGAUACAACCA [SS2-1.1] | 113 nM | 30.6 nM
AAAGACGUGGUGUAGGAUAUACUAAUAGUCACAUGAGGAUCACCCAUGUUCAUAUAUAUGAACGAGUAGAAGGACGACGAAAAAA [SameState2 Malc#2] | 95.8 nM | 70.4 nM
GCCUAACAUGAGGAUCACCCAUGUAGUGGGUUGUUAGGAUAUGGGCCGUGUAACACUGCACCAGAAGGAAUAGAAG [Atinanqu] | 532 nM | 382 nM
